Measured values taken from the nanobody polyreactivity screen of Harvey et al. (2022).

Assay: yeast display, Sf9 membrane polyspecificity reagent, FACS + sequencing; frameworks hold sequencing errors
Summary of the method: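 Nanobodies came from a synthetic yeast display library in Saccharomyces cerevisiae BJ5465, induced with galactose for 36–48 hours and stained for 1 hour at 4 °C with 10% biotinylated, detergent-solubilized Sf9 membrane reagent. Cells were enriched on streptavidin microbeads and then FACS-sorted, with low and high (top ~1%) gates set on anti-HA fluorescence for expression and streptavidin fluorescence for reagent binding. Each polyreactivity label reflects the gate a clone came from. Genes were amplified by colony PCR, sequenced by MiSeq 2 × 250 and filtered by CDR length.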

Sequence	polyreactivity (PSR sort gate)
QVQLVESGGGLVQAGGSLRLSCAASGRILYWYTMGWYRQAPGKERELVAAITDSVGRTYYADSVKGRFTISRDNAKNTVYLQMNSLKPEDTAVYYCNADPYAQQPYSYYYGYDYWGQGTQVTVSS	low polyreactivity
QVQLVESGVGLVQAGGSLRLSCAASGSISDVYAMGVYRQAPGKERDLVAAITSGASTYYADSVKGRFTISLDNAKNTVYLQINSLKPEDTAVYYCSAGYSDWYYAAYNSWGQGTQVTVST	low polyreactivity
QVQLVESGGGLVQAGGSLRLSSAASGFIFTYYAMGWYRQAPGKERELVAVITRGDSTYYADSVKGRFTISRDNAKNTVYLQMNSLKPEDTAVYYCAARGYFGWSGYSVPSTAYGYWGQGTQVTVSS	high polyreactivity
QVQLVESVGGLVQAGGSLRLSCAASGFTFTPYGMGWYRQAPGKERELVAAITWNGGRTYYADSVKGRFTISRDNAKNTVYLQMNSLKPEDTAVYYCAAVAWSWQKRGYWGQGTQVTVSS	high polyreactivity
QVQLVESGGGLVQAGCSLRLSCAASGRIFNDYAMGWYRQAPGKERELVAGISRRGGSTSYADSVKGRFTISRDNAKNTDYLQMNSQKAEDTAVYYCNADYWYDYYSTEYDYWGQGTQVTVSS	low polyreactivity
QVQLVESGGGLVQAGGSLRLSCAASGRTFGFNAKGRYRQAPGTERELVAAISGSGGRPYYADSVKWRFTISRDNAKNTDYLQMNSLKPEDSAVYYCAAGARRGGSGYWGQGTQVTVSS	high polyreactivity
QVQLVESGGGLVQAGGSLRLSCAASGSTFYVNSMGWYRQAPGKERELVAGISFSDGSTYYADSVKGRFTISRDNAKNTVYLQMNSLKPEDTAVYYCATVGALDIYYGYGYWVQGTQVTVSS	low polyreactivity
QVQLVESVGGLVQAGGSLRLSCAASGSIFSVNAMGWYRQAPGKERELVASINFRGGRTYYADSVKGRFTISRDNAKNTVYLQMNSLKPEDTAVYYCAAVITQTDTGYGPSFRVYYWGQGTQVTVSS	high polyreactivity
QVQLVESGGGLVQAGGSLRLSCAASGSNFANYAMGWYRQAPGKEREFVAGISGSGGSTFYADSVKGRFTISRDNAKNTVYLQMNSLKPEDTAVYYCAVVQRSKRTYPWYDYWGQGTQVTVSS	low polyreactivity
QVQLVESGGGLVQAGGSLRLSCAASGFILDFNAMGWYRQAPGKERELVAAISISGVSTYYADSVKGRFTISRDNAKNTVYLQMNSLKPEDTAVYYCAAAQDAAVYWRPGGYDYWGQGTQVTVSS	low polyreactivity
QVQLVESGGGLVQAGGSLRLSCAASGSTFGQYVMAWYRQAPGKERELVAAISSGDSTNYADSVKGRFTISRDNAKNTVYLQMNSLKPEDTAVYYCAAARRPTYWPVYPYFGYEYWGQGTQVTVSS	low polyreactivity
QVQLVESGGGLVQAGGSLRLSCAASGRIFASYAMGWYRQAPGKERELVAAISAGGGSRTYYADSVKGRFTISRDNAKNTVYLQMNSLKPEDTAVYYCNTANSWQRQYYYWGQGTQVTVSS	high polyreactivity
QVQLVESGGGLVQAGGSLRLSCAASGSIVTSNAMGWYRQAPGKERELVAAITSSSSTNYADSVKGRFTISRDNAKNTVYLQMNSLKPEDTAVYYCAADYTWYYPYWIMDYWGQGTQVTVSS	low polyreactivity
QVQLVESGGGLVQAGGSLRLSCPDSAFTFSLYGMGWYRQAPGKEREMVAAIRSGGSTNYADSVKGRFTISRDNAKNTVYLQMNSVKPEDTAVYVCATDIHSVHNNRDKHDYDYWGQGTQVTVSS	low polyreactivity
QVQLVESGGRLVQAGGSLRLSCAASGLIFNDNAMGWYRQAPGKERELVAAISWGGGTTYYADSVKGRFSNSRDNAKYTVFLQMNSLKPEDTAVYYCAAEEAMFYDFYYVLLDYWGQGTQVTVSS	high polyreactivity
QVQLVESGGGLVQAGGSLRLSCAASGRTFARYAMGWYRQAPGKERELVAAISSGGSTYYADSVKGRFTISRDNAKNTVYLQMNSLKPEDTAVYYCAAEWHYIYAYDYWGQGTQVTVSS	low polyreactivity
QVQLVESGGGLVQAGGSLRLSCAASGGTFSYNAMGWYRQAPGKERELVAAISSRGGSTYYSDSVKGRFTISRDNAKNTDYLQMNSLKPEDTAVYYCNAVRGVWYGSWGQGTQVTVSS	high polyreactivity
QVQLVESGGGLVQAGGSLRLSCAASGSTFFRNAMGWYRQAPGKERELVASITSGGNTKYADSVKGRFTISRDNAKNTVYLQMNSLKPEDTAVYYCAALFYHFARYSRLYNYWGQGTQVTVSS	low polyreactivity
QVQLVQSGGGLVQAGGSLRLSCADSGGTFRVYAMGSYRQAPGKERQLVASISWSSGITYYADSVKGRFTISRDNAKNTVYLQMNSLKPEDTAVYYCAAEGHVTYGAPGRLYRMGYWGQGTQVTVSS	low polyreactivity
QVQLEESGGGLVQARVSLRLSSAASGFTLWNYAMGLYRQAPGKERELVAGINSGGRTYYADSVKGRFTISRDNAKNTVYLQMKSLKPEDTAVFYCNARGWSSFSHNSYFMDYWGQGTQVTVSS	high polyreactivity
QVQLVESGGGLVQAGGSLRLSCAASGFIFYEYDMGWYRQAPGKERELVAAISVSGGSTYYADSVKGRFTISRDNAKNTVYLQRNSLKPEDTAVYYCAVFLPDYGRYDYWGQGTQVTVSS	low polyreactivity
QVQLVESGGGLVQAGGSLRLSCAASGRIFDLNAMGWYRQAPGKERELVAAITWSGDSTYYADSVKGRFTISRDNAKNTVYLQMNSLKPEDTAVYYCAAASRTSYSWVDYEFDYWGQGTQVTVSS	low polyreactivity
